Data from article PMC8766471, “Mutations affecting the N-terminal domains of SHANK3 point to different pathomechanisms in neurodevelopmental disorders” (Scientific Reports, 2022).

B1: Shank3 Ank repeats (residues 99-348), WT, recombinant (domain or fragment, rat, UniProt Q9JLU4 99-348, looked up)
chain: QNLIDDKQFAKLHTKANLKKFMDYVQLHSTDKVARLLDKGLDPNFHDPDSGECPLSLAAQLDNATDLLKVLRNGGAHLDFRTRDGLTAVHCATRQRNAGALTTLLDLGASPDYKDSRGLTPLYHSALGGGDALCCELLLHDHAQLGTTDENGWQEIHQACRFGHVQHLEHLLFYGANMGAQNASGNTALHICALYNQESCARVLLFRGANKDVRNYNSQTAFQVAIIAGNFELAEVIKTHKDSDVVPFRE
notes: Shank3, rat, Ank repeats, residues 99-348; expressed from pET-SUMO; also called WT Ank; WT Ank domain; source: E. coli BL21*(DE3), purified (HisTrap HP, SUMO protease, reverse HisTrap pass)
B2: isolated SPN domain of Shank3, recombinant (domain or fragment, rat, UniProt Q9JLU4 1-92, looked up)
chain: MDGPGASAVVVRVGIPDLQQTKCLRLDPTAPVWAAKQRVLCALNHSLQDALNYGLFQPPSRGRAGKFLDEERLLQDYPPNLDTPLPYLEFRY
notes: Shank3 SPN domain, isolated; the methods of expression list only residues 1-348 and 99-348; also called WT SPN

Tests used:
[1] = target: B2; test: ITC; 25 °C; 20 mM Tris pH 7.5, 1 M NaCl, 0.5 mM TCEP; 25 µM SPN in the cell, 400 µM WT Ank or P141A Ank in the syringe; single-site-binding model; conditions: both partners purified
[2] = target: B1; test: as above; conditions: both partners purified

Binder	dH [1] [kcal/mol]	Kd [2] [µM]
B1	-3.7	
B2		19
